Data taken from the supplement of paper PMC10567573.
± gives the standard deviation.

Assay: protein stability index of a GFP-peptide fusion (GPS, HEK-293T) (PSI 1-6); higher = more stable
Details: c terminus: a fixed tail appended
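Note: 24-mer peptide tiles fused after GFP, lentivirally expressed, FACS-sorted into six equal bins by GFP/DsRed ratio, decoded by Illumina sequencing, PSI is the read-weighted mean bin number.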

Sequence | protein stability index (treatment: DMSO) | protein stability index (treatment: MLN4924 1 uM, 8 h)
PDTQENRRMFSSLFQFSNCSQGQQ [CCDC3] | 3.67 ± 0.19 | 3.51 ± 0.17
PECGEIFAHSSNLLRHQRIHTGER [ZNF263] | 3.88 ± 0.24 | 3.91 ± 0.073
PEGARRGLGVLRALGSRGWEPFDW [FANCE] | 3.05 ± 0.34 | 2.98 ± 0.42
PEIEKADDHLQQPLQNQKILKRTG [ZNF649] | 5.3 ± 0.29 | 5.5 ± 0.24
PEQSLKKTKTSEYPIIFVYYLRKG [SPANXN3] | 2.75 ± 1.8 | 2.59 ± 0.37
PERLHAIKEQLIQEGLLDRCVSFQ [HDAC6] | 2.88 ± 0.11 | 3.18 ± 0.12
PESVEASPVVVEKSNSYPHQLYTS [KMT2E] | 4.34 ± 0.32 | 4.44 ± 0.26
PEVLDRESRDRPSCAPSASIPKLK [PWWP2B] | 5.04 ± 0.21 | 5.25 ± 0.15
PGEEKFENLEGVPSVCSENIHPQV [ZNF263] | 4.96 ± 0.23 | 4.96 ± 0.38
PGFDRGQFHKQIAVMRGQILNLTQ [PI4K2A] | 2.56 ± 0.21 | 2.56 ± 0.28
PGFGCKAVRCASGRCTVRDFIHRH [SDE2] | 2.08 ± 0.43 | 2.14 ± 0.46
PGKDYDADRQCQLTFGPDSRHCPQ [ADAMTS4] | 4.68 ± 0.26 | 4.67 ± 0.24
PGRREGCDICAGKAGCPIVEEPLG [RPS21] | 4.09 ± 0.33 | 4.25 ± 0.072
PGSLLCTVAASDPDTGDNARLTYS [PCDHGC5] | 4.12 ± 0.29 | 4 ± 0.14
PGTLLKTSPSPERSLLLKYARTPT [TRIM14] | 3.27 ± 0.22 | 3.15 ± 0.12
PIEVVTEGLLNTYQELLGLSFEQM [NLN] | 2.13 ± 0.37 | 2.29 ± 0.38
PKDIAKLVPKTHLMSESEWRNLGV [CKS1B] | 2.8 ± 0.32 | 2.85 ± 0.34
PKPSGLEPGPAAYGLKPLTPNSKY [KCTD13] | 4.42 ± 0.23 | 4.22 ± 0.26
PLFSEDVVLKLFLSFSGSDVQNKL [SNX8] | 2.1 ± 0.45 | 2.31 ± 0.39
PLLLKEILKHTPKEHPDVQLLEDA [NET1] | 3.82 ± 0.41 | 4.06 ± 0.21
PLMQGPRTRPRKPIRCGEVLFAVG [KLHL20] | 2.23 ± 0.33 | 1.92 ± 0.5
PLMVASAQSGERECHIVVLTDDDV [BTBD10] | 3.71 ± 0.32 | 3.92 ± 0.15

Sequence | protein stability index (treatment: DMSO) | protein stability index (treatment: MLN4924 1 uM, 8 h)
PLPFPGPFPAGPLAVAGGPRKTAA [ESRRA] | 4.43 ± 0.17 | 4.25 ± 0.14
PLPHPGAAPWPMAFPYQYPPPPHP [DVL3] | 3.15 ± 0.28 | 3.41 ± 0.13
PLPQIPNLPFWVKEKANSLKNEIQ [SPATS1] | 2.79 ± 0.45 | 3.4 ± 0.3
PLQDFPNSISSDKEATVPCTEILT [MIA2] | 4.55 ± 0.24 | 4.54 ± 0.24
PNAQYWSQFHSVRPQGPQLRQQQH [DNAJC4] | 3.62 ± 0.14 | 3.76 ± 0.29
PNCFRKDPDINMHPFFFALGKILS [FADS1] | 2.1 ± 0.51 | 2.33 ± 0.5
PPELTASRQSFRMAMGNPSEFFVD [DVL3] | 4.17 ± 0.21 | 3.83 ± 0.21
PPGPKGDQGDEGKEGRPGIPGLPG [SCARA5] | 5.69 ± 0.15 | 5.36 ± 0.41
PPPASQPVVKALFGASAAGGLSPV [CDC25A] | 4.08 ± 0.14 | 4.17 ± 0.21
PPPPMQPTVPSAATSQPTPSQHSA [CCDC6] | 5.23 ± 0.12 | 5.47 ± 0.18
PPSRGHGYRDYGHSRRHESYSRGY [RBMY1A1] | 3.96 ± 0.07 | 4.01 ± 0.32
PQFTGILQLLQSRTSRKFLACRLT [INTS3] | 2.18 ± 0.41 | 2.16 ± 0.27
PQKLKEVISLEKLNVGNERYVFEA [GAN] | 2.96 ± 0.21 | 2.92 ± 0.41
PQVPPSQPLRPWAGGDVPHKTHQA [DYRK1B] | 4.41 ± 0.32 | 4.63 ± 0.21
PQVPQPPSPAAVPRPPSNPPARGT [TRAF3IP2] | 5.2 ± 0.12 | 5.17 ± 0.2
PQYTIRCRPLQFQPSKSHKKVLKK [ATE1] | 3.6 ± 0.09 | 3.88 ± 0.3
PRDLPKHTPLISKSQSLRSVRRSE [RASAL3] | 5.19 ± 0.27 | 5.43 ± 0.2
PRRESLLRGLCRPLRPLLGFRESD [C6orf223] | 2.36 ± 0.46 | 2.13 ± 0.43
PRRFTFYPCVLATEGFTSGRHYWE [TRIM39] | 2.31 ± 0.51 | 2.19 ± 0.13
PSCRHEVVLDRHGVYGLQRNLLVE [TRIM55] | 2.32 ± 0.36 | 2.3 ± 0.47
PSLRPRPASSISLPIGHLGCISLL [DMRTC1] | 2.55 ± 0.35 | 2.85 ± 0.43
PSLSTITSTSSSITSSIPDTERLD [DVL3] | 5.23 ± 0.17 | 5.28 ± 0.16

Sequence | protein stability index (treatment: DMSO) | protein stability index (treatment: MLN4924 1 uM, 8 h)
PSNRSFFSEIISSISDVKFSHSGR [PPP2R2B] | 2.73 ± 0.44 | 2.78 ± 0.39
PSSNEEIRLVDDAFGKICHMVSDG [INTS4] | 4.18 ± 0.23 | 4.5 ± 0.2
PSSSSIHNGDMEKILLDAQHESGQ [BNIP3L] | 5.12 ± 0.14 | 5.27 ± 0.096
PTKSHSFRAMCQNGKLVYPSCEEK [CFHR2] | 4.01 ± 0.32 | 4.25 ± 0.34
PTTSFLSISKLSPFSEFFKLRFNR [PWWP2B] | 2.07 ± 0.33 | 2.13 ± 0.36
PVFLHSQMLWELVLLGEPLVVMAP [DENND6A] | 2.81 ± 0.63 | 2.98 ± 0.69
PVHLVDKLPLPIALRSHLKSFSMA [RAB40B] | 2.46 ± 0.2 | 2.27 ± 0.2
PYQVNGVNPAYPESRYTSDYFISY [ETS1] | 2.18 ± 0.18 | 2.27 ± 0.21
PYSTVDNPVYYGPSDFFIGAVIEV [EFHC1] | 2.8 ± 0.48 | 3.13 ± 0.53
QAPGEENLLGEAAGGQDMADSMLM [HDAC6] | 5.36 ± 0.16 | 5.14 ± 0.36
QAYLDDCHRRYSCAHCRAHLANHD [YPEL3] | 2.68 ± 0.43 | 2.45 ± 0.39
QCLVEGCTEKFKTSRDRKDHMVRM [ZNF511] | 3.57 ± 0.27 | 3.95 ± 0.25
QDEEDMFMVVDLLLGGDLRYHLQQ [STK32A] | 2.21 ± 0.18 | 2.1 ± 0.35
QDIDLGAGREVFDYSHRQKEQDVE [NFE2L1] | – | 5.05 ± 0.84
QDSSVTSKRNIKKGAVPRSIPNLA [HDAC6] | 4.17 ± 0.26 | 4.21 ± 0.41
QEAMFNMATLNRTAAGLMHTFNAH [SEPHS2] | 2.44 ± 0.12 | 2.54 ± 0.18
QELANIDPTWIESPKTNGHIENGP [SRPK2] | 4.92 ± 0.32 | 4.63 ± 0.19
QEMQQKLVELSAENEKLHQRVEQL [CEBPD] | 4.84 ± 0.1 | 4.74 ± 0.54
QFAAEYTSKNSSTQDPSQPNSTKN [LCOR] | 5.22 ± 0.15 | 5.36 ± 0.08
QFLLELLSDKSCQSFISWTGDGWE [ETS2] | 1.83 ± 0.38 | 1.85 ± 0.29
QHCRQSLASRIRSNKKMLLLVGGL [KLHL14] | 2.54 ± 0.83 | 2.24 ± 0.43
